Results as given in patent US20260297187 (published 2026).
Changes are numbered by the printed parent chain. Names may count otherwise.

T1: CEACAM1-his (human)
T1 chain: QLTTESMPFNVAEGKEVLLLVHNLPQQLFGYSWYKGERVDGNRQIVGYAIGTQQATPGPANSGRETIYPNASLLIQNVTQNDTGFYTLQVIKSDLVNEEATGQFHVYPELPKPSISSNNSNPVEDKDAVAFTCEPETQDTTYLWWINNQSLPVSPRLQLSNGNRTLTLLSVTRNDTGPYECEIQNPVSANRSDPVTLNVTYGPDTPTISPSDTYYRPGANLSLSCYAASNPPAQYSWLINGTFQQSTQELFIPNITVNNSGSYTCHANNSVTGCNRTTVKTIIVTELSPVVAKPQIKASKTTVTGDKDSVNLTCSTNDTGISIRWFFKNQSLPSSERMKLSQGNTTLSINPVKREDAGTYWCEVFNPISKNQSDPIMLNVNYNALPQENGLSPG

T2: CEACAM3 (human, UniProt P40198)
T2 chain: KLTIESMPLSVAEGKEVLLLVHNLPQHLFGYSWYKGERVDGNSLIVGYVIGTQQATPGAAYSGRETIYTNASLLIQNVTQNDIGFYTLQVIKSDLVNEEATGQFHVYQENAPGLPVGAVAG

T3: CEACAM5 (human, UniProt P06731)
T3 chain: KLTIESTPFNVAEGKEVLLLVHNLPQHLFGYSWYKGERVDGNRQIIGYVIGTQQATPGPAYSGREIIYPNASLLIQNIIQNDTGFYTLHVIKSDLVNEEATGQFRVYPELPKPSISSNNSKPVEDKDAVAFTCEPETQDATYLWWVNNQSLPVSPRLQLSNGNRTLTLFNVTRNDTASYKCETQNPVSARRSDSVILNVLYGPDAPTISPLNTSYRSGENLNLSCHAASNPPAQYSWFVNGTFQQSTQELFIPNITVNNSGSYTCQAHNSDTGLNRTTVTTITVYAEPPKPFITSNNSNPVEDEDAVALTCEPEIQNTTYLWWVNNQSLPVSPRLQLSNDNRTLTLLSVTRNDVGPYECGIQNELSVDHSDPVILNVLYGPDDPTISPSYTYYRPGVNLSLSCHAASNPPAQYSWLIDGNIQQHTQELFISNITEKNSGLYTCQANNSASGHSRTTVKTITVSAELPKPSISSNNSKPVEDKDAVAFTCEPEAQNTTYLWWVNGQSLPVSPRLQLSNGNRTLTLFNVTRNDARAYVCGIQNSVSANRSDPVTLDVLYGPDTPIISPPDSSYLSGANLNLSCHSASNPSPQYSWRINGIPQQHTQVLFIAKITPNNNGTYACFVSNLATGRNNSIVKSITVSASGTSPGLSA

T4: CEACAM6 (human, UniProt P40199)
T4 chain: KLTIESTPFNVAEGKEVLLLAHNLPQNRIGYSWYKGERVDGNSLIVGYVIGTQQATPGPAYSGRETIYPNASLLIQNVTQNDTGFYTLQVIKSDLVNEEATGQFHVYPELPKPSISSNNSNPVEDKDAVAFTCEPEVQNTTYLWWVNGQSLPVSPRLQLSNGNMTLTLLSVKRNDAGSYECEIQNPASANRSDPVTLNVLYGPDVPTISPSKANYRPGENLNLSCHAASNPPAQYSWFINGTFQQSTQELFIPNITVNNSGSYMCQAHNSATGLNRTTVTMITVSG

B1: h9D12.G4.H0bL7 (antibody, V domains shown)
VH: QVQLVQSGAEVKKPGASVKVSCKASGFNIKDTYMHWVRQAPGQGLEWMGRIDLASGDSKYDPKFQGRVTMTRDTSTSTVYMELSSLRSEDTAVYYCARAHFGGGNWYFDVWGQGTTVTVSS
VL: DIQLTQSPSFLSASVGDRVTITCSASSSVSYMHWYQQKPGQAPKPWIYEISKLASGVPSRFSGSGSGTEYTLTISSMQSEDFAVYYCQQWNYPLTFGQGTKLEIK
B2: h9D12.G4.H0aL7 (antibody, V domains shown)
VH: B1 VH with Q1E, S17T, V20I, A24V, R38Q, Q43K, M70I, R72A, S77D, V79A
VL: B1 VL
B3: h9D12.G4.H4L7 (antibody, V domains shown)
VH: B1 VH with M48I, R72A
VL: B1 VL
B4: h4D10.G4.H4L2 (antibody, V domains shown)
VH: QVQLVQSGAEVKKPGASVKVSCKASGYTFSSYVIHWVRQAPGQGLEWMGYFNPYNNGTNYNENFKGRVTMTADTSTSTVYMELSSLRSEDTAVYYCARYYYASGSLYFDYWGQGTTVTVSS
VL: DIQMTQSPSTLSASVGDRVTITCSASSSVSYMHWYQQKPGKAPKPLIYEISKLASGVPSRFSGSGSGTEFTLTISSLQPDDAATYYCQQWNYPLITFGGGTKVEIK
B5: h4D10.G4.H4(N56Q Y100F)L2 (antibody, V domains shown)
VH: B4 VH with N56Q, Y100F
VL: B4 VL
B6: h2C10.G4.H0aL4 (antibody, V domains shown)
VH: QVQLVQSGAEVKKPGASVKVSCKASGFAFTNYLIEWVRQAPGQGLEWMGVLNPGSGATNYNEKFKGRVTMTRDTSISTAYMELSRLRSDDTAVYYCARGIYGGYFAMDYWGQGTLVTVSS
VL: DIQMTQSPSSLSASVGDRVTITCRASQDITTYLNWYQQKPGGAPKLLIYYTSRLHSGVPSRFSGSGSGTDFTLTISSLQPEDIATYYCQQGNTLPRTFGGGTKLEIK
B7: h2C10.G4.H0aL2 (antibody, V domains shown)
VH: B6 VH
VL: B6 VL with P8T, F71Y
B8: 4D10 (antibody, V domains shown)
VH: EVQLQQSGPELVKPGASVKMSCKASGYTFSSYVIHWVRQKPGQGLEWIGYFNPYNNGTNYNENFKGKATLTSGKSSSTAYMELSSLTSEDSAVYYCARYYYASGSLYFDYWGQGTTLTVSS
VL: EIVLTQSPAIATASLGQKVTITCSASSSVSYMHWYQQKSGTSPKPWIYEISKLASGVPTRFSGSGSGTSYSLTISSMEAEDAAIYYCQQWNYPLITFGAGTKLELK
B9: 2C10 (antibody, V domains shown)
VH: QVQLQQSGAELVRPGTSVKVSCKASGFAFTNYLIEWVKQRPGQGLEWIGVLNPGSGATNYNEKFKGKATLTADKSSSTAYMQLSSLTSDDSAVYFCARGIYGGYFAMDYWGQGTSVTVSS
VL: DIQMTQTTSSLSASLGDRVTISCRASQDITTYLNWYQQRPDGTVKLLIYYTSRLHSGVPSRFSGSGSGTEYSLTISNLEQEDIATYFCQQGNTLPRTFGGGTKLEIR
B10: 9D12 (antibody, V domains shown)
VH: EVQLQQSGAELVKPGASVKLSCTASGFNIKDTYMHWVKQRPEQGLEWIGRIDLASGDSKYDPKFQGKATITADTSSNTAYLQFSSLTSEDTAVYYCARAHFGGGNWYFDVWGAGTTVTVSS
VL: EIVLTQSPAITAASLGQKVTITCSASSSVSYMHWYQQKSGTSPKPWIYEISKLASGVPARFSGSGSGTSYSLTISSMEAEDAAIYYCQQWNYPLTFGAGTKLELK
B11: 7D4 (antibody, V domains shown)
VH: EVQLQQSGAELVRPGASVKLSCTASGFNLKDTYMHWVKQRPEQGLEWIGRIDPSDGDTKYGPKFQDKTTITADTSSNTAYLQLSSLTSEDAAVYYCARAHFGGGGWYFDVWGAGTTVTVSS
VL: B10 VL with S30G, S75R, S76N

Biological target: T1, CEACAM1-his
Experiment: BLI

**Q.** For B1, which Kd is on record?
**A.** 3.68 nM

**Q.** Which Kd does the source give for B2 here?
**A.** 3.39 nM

**Q.** How did the Kd turn out when B3 was run?
**A.** 2.46 nM

**Q.** How did the Kd turn out when B4 was run?
**A.** 1.7 nM

**Q.** B5 was tested. Which Kd did it give?
**A.** 2.02 nM

**Q.** How did the Kd turn out when B6 was run?
**A.** 1.83 nM

**Q.** How did the Kd turn out when B7 was run?
**A.** 0.85 nM

Biological target: T2, CEACAM3
Experiment: BLI

**Q.** Does B8 bind?
**A.** no binding

**Q.** Does B9 bind?
**A.** no binding

Biological target: T3, CEACAM5
Experiment: BLI

**Q.** Does B8 bind?
**A.** no binding

Biological target: T1, CEACAM1-his
Experiment: BLI
Remark: another data set of the same source

**Q.** With B9 as the binder, how does the Kd read?
**A.** 0.955 nM

**Q.** B10 was tested. Which Kd did it give?
**A.** 2.9 nM

**Q.** With B11 as the binder, how does the Kd read?
**A.** 6.97 nM

Biological target: T1, CEACAM1-his
Experiment: BLI
Remark: another data set of the same source

**Q.** With B4 as the binder, how does the Kd read?
**A.** 2.65 nM

**Q.** B5 was tested. Which Kd did it give?
**A.** 3.31 nM

Biological target: T1, CEACAM1-his
Experiment: BLI
Remark: another data set of the same source

**Q.** How did the Kd turn out when B1 was run?
**A.** 3.68 nM

**Q.** How did the Kd turn out when B2 was run?
**A.** 3.39 nM

**Q.** For B3, which Kd is on record?
**A.** 2.46 nM

**Q.** How did the Kd turn out when B4 was run?
**A.** 1.7 nM

**Q.** How did the Kd turn out when B6 was run?
**A.** 1.83 nM

**Q.** With B7 as the binder, how does the Kd read?
**A.** 0.85 nM

biological target: CEACAM1 (cell surface) (human); experiment: FACS, BxPC-3
Sequence (chain, as listed by the source): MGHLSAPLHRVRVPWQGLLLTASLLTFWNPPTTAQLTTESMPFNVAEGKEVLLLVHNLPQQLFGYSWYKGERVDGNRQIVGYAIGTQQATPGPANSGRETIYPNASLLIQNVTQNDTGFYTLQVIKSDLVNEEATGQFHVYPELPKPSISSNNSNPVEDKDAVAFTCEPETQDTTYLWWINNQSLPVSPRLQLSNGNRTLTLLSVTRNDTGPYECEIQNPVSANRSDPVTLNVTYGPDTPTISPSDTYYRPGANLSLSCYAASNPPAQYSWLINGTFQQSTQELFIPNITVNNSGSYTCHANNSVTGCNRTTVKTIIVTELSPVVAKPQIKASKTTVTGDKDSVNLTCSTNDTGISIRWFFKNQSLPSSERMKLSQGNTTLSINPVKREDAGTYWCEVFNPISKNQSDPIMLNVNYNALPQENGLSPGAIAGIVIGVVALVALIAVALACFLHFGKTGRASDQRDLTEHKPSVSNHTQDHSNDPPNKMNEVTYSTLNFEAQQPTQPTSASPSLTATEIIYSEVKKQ

**Q.** Which EC50 does the source give for B1 here?
**A.** 0.0723 µg/mL

**Q.** How did the EC50 turn out when B4 was run?
**A.** 0.0263 µg/mL

**Q.** With B5 as the binder, how does the EC50 read?
**A.** 0.0211 µg/mL

**Q.** For B6, which EC50 is on record?
**A.** 0.031 µg/mL

**Q.** Which EC50 does the source give for B7 here?
**A.** 0.0464 µg/mL

biological target: CEACAM1 (cell surface) (human); experiment: FACS, Raji-CEACAM1

**Q.** Which EC50 does the source give for B4 here?
**A.** 0.0699 µg/mL

**Q.** For B6, which EC50 is on record?
**A.** 0.0862 µg/mL

**Q.** Which EC50 does the source give for B7 here?
**A.** 0.0746 µg/mL

biological target: CEACAM1 (cell surface) (human); experiment: FACS, HepG2

**Q.** With B1 as the binder, how does the EC50 read?
**A.** 0.0974 µg/mL

**Q.** For B4, which EC50 is on record?
**A.** 0.039 µg/mL

**Q.** How did the EC50 turn out when B6 was run?
**A.** 0.0491 µg/mL

**Q.** For B7, which EC50 is on record?
**A.** 0.0684 µg/mL

Biological target: T4, CEACAM6
Experiment: BLI

**Q.** Does B8 bind?
**A.** no binding

**Q.** Does B9 bind?
**A.** no binding

**Q.** Does B10 bind?
**A.** no binding

**Q.** Does B11 bind?
**A.** no binding
